The supplement of paper PMC9170038

Tested on: MS2 coat protein
Test: apparent KD of MS2 coat protein; higher = weaker reporter binding
Settings: Eterna round: R107
Method: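 RNA-MaP round R107: designed RNA switches with theophylline, tryptophan, arginine or FMN aptamers are transcribed on-chip within common flanks. They are titrated with SNAP-549-labelled MS2 coat protein in RNA-MaP buffer (100 mM Tris pH 7.5, 80 mM KCl, 4 mM MgCl2), without ligand or with the indicated ligand. Median apparent KD per design.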

[1] = input ligand: theophylline 20 uM
[2] = input ligand: theophylline 2 mM
[3] = input ligand: tryptophan 2.4 mM

## UCAGGAAGAGCGGCCGCCACUGUUUGGCAUGCGGAUGAAGGAACAUGAGGAUCACCCAUGUAGAUUAGGACCGGGCUUGCGGAGA [szeemullin]
Input ligand: arginine 13.2 mM
  apparent KD of MS2 coat protein: 20.9 nM
Input ligand: none
  apparent KD of MS2 coat protein: 13.7 nM
[1]
  apparent KD of MS2 coat protein: 24.2 nM
[2]
  apparent KD of MS2 coat protein: 19.4 nM
[3]
  apparent KD of MS2 coat protein: 12.6 nM

## UAUCGUCAGACGGCCGCCACUAGAACAUGAGGAUCACCCAUGUAGUGGCCGGAUACCUCAAUAACUAGGACCGGGUCUGACGAAU [(Trp1)-(Ms2)-(T)'-(M)'-(Trp2)_Design17]
Input ligand: arginine 13.2 mM
  apparent KD of MS2 coat protein: 36.6 nM
Input ligand: none
  apparent KD of MS2 coat protein: 52.2 nM
[1]
  apparent KD of MS2 coat protein: 96.5 nM
[2]
  apparent KD of MS2 coat protein: 54 nM
[3]
  apparent KD of MS2 coat protein: 32.7 nM

## ACAUGAGGAUCACCCAUGUGAAGGCACGAUACCAGCUGAUCCCGUGGCCCUUGGCAGCGUCCGGUGUGGUCCGGCGGAUGGGACG [xwxmullin]
Input ligand: arginine 13.2 mM
  apparent KD of MS2 coat protein: 19.1 nM
Input ligand: none
  apparent KD of MS2 coat protein: 25 nM
[1]
  apparent KD of MS2 coat protein: 23.3 nM
[2]
  apparent KD of MS2 coat protein: 30.9 nM
[3]
  apparent KD of MS2 coat protein: 26.4 nM

## AAACGUUGCUGCGAUACCAGACAUGAGGAUCACCCAUGUACCAAGGUAAAGAAAUAACGUGUCCCUUGGCAGCGCAGCAACGAAA [MAT - Exclusion Theophlline B - Mod of Eli - D12]
Input ligand: arginine 13.2 mM
  apparent KD of MS2 coat protein: 8.7 nM
Input ligand: none
  apparent KD of MS2 coat protein: 10.2 nM
[1]
  apparent KD of MS2 coat protein: 16.1 nM
[2]
  apparent KD of MS2 coat protein: 143 nM
[3]
  apparent KD of MS2 coat protein: 10.6 nM

## AACAUGAGGAUCACCCAUGUCCCAUGUGAACGAGGACCGGUACGGCCGCCACUCGAAUGAGGCGGCACAUGAGGAUCACCCACAU [whbob_SS_trypto A_2s11]
Input ligand: arginine 13.2 mM
  apparent KD of MS2 coat protein: 95.7 nM
[1]
  apparent KD of MS2 coat protein: 233 nM
[2]
  apparent KD of MS2 coat protein: 237 nM

## GCGAACGGACCGUUGCCUUCCUGUGUGCGGCGAGGACCGGUACGGCCGCCACUCGACUGCGUACAUGAGGAUCACCCAUGUUAGA [theeternabot_exclusion_MS2_Trp_A_16]
Input ligand: arginine 13.2 mM
  apparent KD of MS2 coat protein: 41.2 nM
[1]
  apparent KD of MS2 coat protein: 40.2 nM
[2]
  apparent KD of MS2 coat protein: 31.8 nM

## GGACUAACCAGAAGGAGCGACACGCAGAAACUGCAAUUUCCUCCGCACGAGGAUCACCCGUGUCAGGUAGGUCGCUGGUUAGUCG
Input ligand: arginine 13.2 mM
  apparent KD of MS2 coat protein: 20.6 nM
Input ligand: none
  apparent KD of MS2 coat protein: 22.1 nM
[1]
  apparent KD of MS2 coat protein: 35.1 nM
[2]
  apparent KD of MS2 coat protein: 25.8 nM
[3]
  apparent KD of MS2 coat protein: 21.1 nM

## CCGUCACAUGAGGAUCACCCAUGUGCGGAAGGAGCGGACGAUAGUCCAGGUAGGUCGCCGUAUAGCCAAUGACCAGCAGUGUCGG [XARG-A 22]
Input ligand: arginine 13.2 mM
  apparent KD of MS2 coat protein: 12.4 nM
Input ligand: none
  apparent KD of MS2 coat protein: 13.9 nM
[1]
  apparent KD of MS2 coat protein: 16.6 nM
[2]
  apparent KD of MS2 coat protein: 14.8 nM
[3]
  apparent KD of MS2 coat protein: 15 nM

## UCGUGUGUUUCGGAUACCAGUGUGGUCGAUACAUGAGGAUCACCCAUGUGAGAGGAGGUACACCCUUGGCAGCUGGCUGUUGCGG [qqwmullin]
Input ligand: arginine 13.2 mM
  apparent KD of MS2 coat protein: 39.7 nM
[1]
  apparent KD of MS2 coat protein: 82 nM
[3]
  apparent KD of MS2 coat protein: 77.5 nM

## AAUAUAUAGACGGCCGCCACUGGAACCAAUACAUGAGGAUCACCCAUGUGAAAAGGAUAGGUUCACAGGACCGGGUCUUCAUGUA [SS Tryp B Tesla 1.3]
Input ligand: arginine 13.2 mM
  apparent KD of MS2 coat protein: 40.5 nM
[1]
  apparent KD of MS2 coat protein: 33.1 nM
[2]
  apparent KD of MS2 coat protein: 61 nM

## UUAUGCAGGUCGGCCGCCACUACACACAUGAGGAUCACCCAUGUAGUUACUGGGUGAAGUGGCAGUAGGACCGGGACCUGCAUAC [Brourdmod06]
Input ligand: arginine 13.2 mM
  apparent KD of MS2 coat protein: 55.4 nM
[1]
  apparent KD of MS2 coat protein: 396 nM
[2]
  apparent KD of MS2 coat protein: 877 nM

## UUGCUCUCUUCGGCCGCCACUACACGCGAGUUGACGACUGGCGGACAUGAGGAUCACCCAUGUCAUAGGACCGGGAAUCACGCUG [theeternabot_sameState_MS2_Trp_B_11]
Input ligand: arginine 13.2 mM
  apparent KD of MS2 coat protein: 11.5 nM
[1]
  apparent KD of MS2 coat protein: 15.9 nM
[2]
  apparent KD of MS2 coat protein: 15.2 nM

## GGUUGGUAUAUAUAUAUAUUGAUUACUGAAGGAGCGGGAAAUAACCCAGGUAGGUCGCAGAGAUCCACAUGAGGAUCACCCAUGU [!0.G]
Input ligand: arginine 13.2 mM
  apparent KD of MS2 coat protein: 24.3 nM
Input ligand: none
  apparent KD of MS2 coat protein: 45.1 nM
[1]
  apparent KD of MS2 coat protein: 60.3 nM
[2]
  apparent KD of MS2 coat protein: 56.8 nM
[3]
  apparent KD of MS2 coat protein: 39.1 nM

## UGAUGGUGCUGAAGGAGCGUGUAAGAACAAGAACAUGAGGAUCACCCAUGUAUUAAUUUAACGCAGGUAGGUCGCGGUGUUAUUG [11.M]
Input ligand: arginine 13.2 mM
  apparent KD of MS2 coat protein: 22.4 nM
Input ligand: none
  apparent KD of MS2 coat protein: 20.2 nM
[1]
  apparent KD of MS2 coat protein: 30.7 nM
[2]
  apparent KD of MS2 coat protein: 22.4 nM
[3]
  apparent KD of MS2 coat protein: 18.6 nM

## UCGGGCAGAGCGGCCGCCACUGUUUGGCGUGCGGAUGAAGGAACAUGAGGAUCACCCAUGUUGAUUAGGACCGGGCUUGCGGAGA [kklmullin]
Input ligand: arginine 13.2 mM
  apparent KD of MS2 coat protein: 12.6 nM
Input ligand: none
  apparent KD of MS2 coat protein: 17.1 nM
[1]
  apparent KD of MS2 coat protein: 27 nM
[2]
  apparent KD of MS2 coat protein: 17.4 nM
[3]
  apparent KD of MS2 coat protein: 16.7 nM

## GGGCGUGUGGUGCGGCGUGCUCCGCUCCGUCGAGGACCGGUACGGCCGCCACUCGACAUGAGGAUCACCCAUGUGCGAGCGCGCG [#1 Exclusion - Tryptophan A Attempt #9 (HarryS)]
Input ligand: arginine 13.2 mM
  apparent KD of MS2 coat protein: 16.3 nM
Input ligand: none
  apparent KD of MS2 coat protein: 9.81 nM
[1]
  apparent KD of MS2 coat protein: 10.5 nM
[2]
  apparent KD of MS2 coat protein: 14.4 nM
[3]
  apparent KD of MS2 coat protein: 24.4 nM
